# The supplement of paper PMC12042874
# ± gives the uncertainty stated by the source.
# Test: amyloid nucleation score (Sup35N fusion, yeast selection) (log enrichment); library NNK2; higher = more nucleation; inactive = no reads after selection
# Summary of the method: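 DiMSum was used to calculate nucleation scores as log enrichment of output over input reads, centred on the mode score of non-aggregating sequences. Sequences with fewer than 100 input reads were not scored. Input and output came from Illumina sequencing of plasmid inserts in psi-negative yeast expressing peptides of 20 random codons fused to Sup35N, induced 24 hours with 100 μM copper sulfate and then grown 7 days at 30°C on medium lacking adenine and uracil.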
row,Substance,amyloid nucleation score
1,RKDSCCSVNRCDAMSFVRGI,0.073 ± 1.1
2,RKLTIA,-0.887 ± 0.42
3,RKYTCSFRLFYRGVCFVT,-1.16 ± 0.76
4,RLALY,1.45 ± 0.25
5,RLCAVITMVEVIYFSYYVWF,0.013 ± 0.55
6,RLCWWLVWS,0.166 ± 0.76
7,RLFNTYYSRSFASYGYWLHC,0.47 ± 0.16
8,RLFRFPNVLHDLICNMYICA,6.024 ± 0.049
9,RLGIFYKVDLSLVGKVPNST,2.79 ± 0.17
10,RLGSRGSLSFYVHLTCWVEV,-0.27 ± 0.79
11,RLGWNGE,-0.709 ± 0.49
12,RLLFCGWLTN,-1 ± 1
13,RLLFVWV,4.12 ± 0.087
14,RLNVL,-0.987 ± 0.53
15,RLPARLGSS,0.23 ± 0.25
16,RLRGFIPLCTYIFPNFRGLL,-0.718 ± 0.65
17,RLRQMCFKRNSVKLLLWNRF,0.409 ± 0.8
18,RLSIHKSFVFDLTRSALSTM,-0.293 ± 0.55
19,RLSYWFIKELGNTSDYDRAP,-0.541 ± 0.76
20,RLTSGIW,-0.814 ± 0.76
21,RLYKRLR,-1.19 ± 1.1
22,RLYNSQFIKYWNFSSRCCLL,3.51 ± 0.098
23,RMCMR,0.017 ± 0.34
24,RMCWELFT,0.022 ± 0.34
25,RMDVISEKFVWANESNCGVA,0.362 ± 0.25
26,RMETTKPIRSSGTSITAPNG,1.53 ± 0.53

row,Substance,amyloid nucleation score
1,RMEVEFFVPW,2.9 ± 0.11
2,RMFRFRRHSKHLEKLSSRFL,-0.222 ± 0.49
3,RMLFVHPVGYGCEAAVGSSW,1.09 ± 0.23
4,RMLLIGIRCLIMSWHMLHN,-0.029 ± 0.37
5,RMLSRSRWLTI,-0.169 ± 0.34
6,RMLYVFSFTHNKVVIFARTE,-1.11 ± 0.76
7,RMRFYWWDVSMLYTCSYSDF,1.04 ± 0.11
8,RMVSYY,-0.474 ± 0.56
9,RNGFAIRITANHYTQLVYDL,3.82 ± 0.094
10,RNHRRSWMPSFRTKLNGGWF,3.58 ± 0.14
11,RNIIFTWGLCC,5.913 ± 0.035
12,RNSIYCTND,-0.679 ± 0.47
13,RNSSL,0.495 ± 0.48
14,RNVSNRPNAQIRKSVRCCWG,0.388 ± 0.42
15,RPGYNQMDFDWRLLIDVFDG,-0.133 ± 1
16,RPLPSFPNNRSERSNTSF,0.851 ± 0.57
17,RPLSAEACPYVCTVSWDGLW,1.02 ± 0.14
18,RPWLVY,0.026 ± 1.1
19,RQSFVVDNNELCKFTCDYSC,7.376 ± 0.043
20,RQSNPR,1.53 ± 0.31
21,RQTSLKRL,-0.159 ± 1
22,RQVGNHSTYGLFNVQTRLRL,2.52 ± 0.079
23,RRAWGFLVMRVGTDPMMTGI,0.196 ± 0.37
24,RRDSVKCVSARGRISLLVSR,2.8 ± 0.056
25,RRFLNGFFRVQRLRYRHPFI,-0.005 ± 0.63
26,RRGHVL,1.82 ± 0.21

row,Substance,amyloid nucleation score
1,RRGKFEAANSWGD,0.792 ± 0.53
2,RRGQEGYRVEWA,1.22 ± 0.59
3,RRIGFDAPDVSRYVALLYWD,-0.106 ± 0.32
4,RRIVGFFANDRTLIYLVGYI,-0.902 ± 0.49
5,RRLAGSTAEKMYMF,inactive
6,RRLFRLVVYFLPNR,inactive
7,RRLKLRINMVFLEYGFKSKF,3.8 ± 0.046
8,RRNFGGNLNWIDIVYEHVCL,0.09 ± 0.33
9,RRRHLGFGKSVEVE,-0.549 ± 0.34
10,RRSGGPGEDGGSYERQFTSR,0.95 ± 0.32
11,RRSYFFLVTFTLDVRDMVCF,1.77 ± 0.18
12,RRTSYLCWFAGYFGLI,-0.295 ± 0.45
13,RRVNFMKVTFNLKVILFRWS,-1.52 ± 1.1
14,RRWYYFIEWRKYYQNRTVDQ,-0.321 ± 0.8
15,RRYGKW,1.67 ± 0.41
16,RSERPFAWVMALTFTCAGGL,3.47 ± 0.11
17,RSFSSPRIILYVKLLVSLYG,-0.783 ± 0.25
18,RSGVL,4.24 ± 0.066
19,RSHATFRSSSLIPGVEV,0.409 ± 0.23
20,RSHVVH,1.18 ± 0.68
21,RSILEM,-0.302 ± 0.61
22,RSKHQKRSALCYFESGVTAV,0.663 ± 0.37
23,RSMDPCRLLSELIRRT,0.938 ± 0.32
24,RSQGLWMHAGPSFSVGYPFG,3.9 ± 0.085
25,RSSRW,2.82 ± 0.1
26,RSSSVVEARGESST,7.106 ± 0.041

row,Substance,amyloid nucleation score
1,RSSTLNRRKNKGGSTNVDCL,0.355 ± 0.56
2,RSTQLNSGPTANK,1.21 ± 0.41
3,RSVPYSLCSMQLCTFHFEHS,8.384 ± 0.028
4,RTALLP,1.58 ± 0.52
5,RTDFMHTIFLPCRGHGMSWF,0.91 ± 0.35
6,RTDRSYRGLKPVVLVTQWGG,-0.106 ± 0.63
7,RTIYFFLSWHFGSFIKFLKL,inactive
8,RTLWATNVRLKNLHVFIMVM,0.147 ± 0.8
9,RTPFEDKVSIGDDSRSRADL,0.414 ± 0.41
10,RTRSSYGVVLKIRKWCPEVA,1.18 ± 0.61
11,RTSRVKVR,4.13 ± 0.074
12,RTVGLSHIIICN,0.089 ± 0.5
13,RTVYRFNVRI,0.291 ± 0.27
14,RTVYYHQFPGSGFVYVSGFS,-0.324 ± 1.1
15,RTWAFFKAVWGIVDRTTLSN,-1.13 ± 0.62
16,RVDLVDSSICADANLLG,1.17 ± 0.26
17,RVFKDTRRIG,-0.545 ± 1
18,RVFNLLYVLNWNAKSLSWMS,4.32 ± 0.11
19,RVGACRMVRHYVGTWVQQLL,0.246 ± 1.1
20,RVGTLSWTRAFVFLGYGMVQ,-0.044 ± 0.48
21,RVIWRQWYNTL,1.61 ± 0.19
22,RVIWSPSRDRSSWFTESEYH,-0.278 ± 0.36
23,RVLKLCRLCHFKYLTSEAGV,-0.309 ± 0.34
24,RVQVPLGRAGTRISRSGKIW,0.805 ± 0.43
25,RVRSSLVDLASVGSILLTAR,-0.264 ± 0.41
26,RVSTNGFVSQPMRWYVIVDS,-0.142 ± 0.25

row,Substance,amyloid nucleation score
1,RVTYDFFILWC,4.465 ± 0.044
2,RVYLFLELIRALSFRTNHCG,-0.245 ± 0.76
3,RVYMWLWIGWCRIG,0.58 ± 0.51
4,RWAFHCKSRDVFNMRKL,inactive
5,RWITSAY,0.709 ± 0.62
6,RWQCLVEHMRSANLGVRRGP,0.074 ± 0.41
7,RWSGPGCTLSTGMWTFIPQV,-0.145 ± 0.76
8,RWTWNSEVRNLRIFASYPGC,-0.418 ± 1.1
9,RWYRRCLYT,0.162 ± 0.37
10,RYAQGRRWSYRLNRCLVGRC,1.81 ± 0.27
11,RYAYLFGPGRCWMFLSVFPY,4.2 ± 0.069
12,RYKWFNKWYTCWYSRFKFYV,-1.13 ± 0.26
13,RYLETYHSHACVSFTERN,0.606 ± 0.45
14,RYMGGIWKSIRTS,0.061 ± 0.21
15,RYNPCD,0.334 ± 0.44
16,SACLFLDME,0.664 ± 0.41
17,SACVLCFYQIFFYRVDCTGG,6.414 ± 0.052
18,SACVWVNICTSASNGDPG,7.445 ± 0.039
19,SAGYKLDSCTVYWGLACDSR,-0.366 ± 0.79
20,SAIDWDFQTIFLLSEFQYGF,-1.44 ± 1.1
21,SANHMKTDA,0.436 ± 0.8
22,SAPYLIMLRLDSCACGDVF,2.01 ± 0.083
23,SARIGISRFCPHAVSPVITK,inactive
24,SARPELCMPIIRLCGSREDQ,-0.056 ± 0.22
25,SARVSWGCWHFAMYSRCIRQ,inactive
26,SASMHWYSSRCDTL,0.275 ± 0.29

row,Substance,amyloid nucleation score
1,SATARKNILVSLGSVALFDR,-0.82 ± 0.54
2,SAVNHTYVGD,0.122 ± 1.1
3,SAYVVLIEFVLNKVVGTLLR,-0.634 ± 0.63
4,SCCFSMGGPVNVVQSSRMVR,-0.781 ± 0.55
5,SCCNL,-0.11 ± 0.19
6,SCGYFITKKEH,-0.679 ± 0.3
7,SCHWNVTRGRWNTKHNLRPK,1.06 ± 0.4
8,SCIMLIVPMINSAYAVLLWR,-0.771 ± 0.62
9,SCKKCMSYVVVVNIVRHICM,1.86 ± 0.11
10,SCLLVEQLP,0.864 ± 0.26
11,SCPNYTVSIWIYMPFFSWLR,2.81 ± 0.08
12,SCRGDKQERKPIHYVRHIWY,-0.798 ± 0.24
13,SCRLLDSFDPMSRGKSSQRR,-0.003 ± 1.1
14,SCSERLSMWLRED,4.62 ± 0.047
15,SCSHYTVECKGAWGFCACGH,0.085 ± 0.36
16,SCSIKSSTVVEDPF,0.049 ± 0.76
17,SCSSCLL,-0.183 ± 1
18,SCSWCMLVPRGGVGVPKG,0.335 ± 0.22
19,SCTHLDW,inactive
20,SCVINM,1.55 ± 0.11
21,SCWRRMSSITPG,1.68 ± 0.47
22,SDCGHAEVVCAGNHGGTSYP,0.326 ± 0.27
23,SDCRWNCVSMEWIDPTHEDK,-0.518 ± 0.2
24,SDFIMTLSERVVGASLNSCD,inactive
25,SDGEISGEGY,-0.368 ± 1.1
26,SDICRREMHNTAIFLALF,1.56 ± 0.1

row,Substance,amyloid nucleation score
1,SDLGCLRYRTKGGAVGVDGV,0.653 ± 0.21
2,SDMLLVISWFSFVKNK,4.05 ± 0.073
3,SDRMELWKNESRLYIGMAVR,0.451 ± 0.49
4,SESDSTLRSTIDSRLCGS,-0.53 ± 0.55
5,SESHICGV,-1.62 ± 0.62
6,SESVL,-1 ± 0.76
7,SEVLNVFA,-1.14 ± 0.34
8,SFDFLSLLSDRCLVLDVSPN,0.761 ± 0.46
9,SFDGGRDGRLMYIGRMLEEL,-0.067 ± 0.62
10,SFEPFETLEREVPPPLTWPT,1.99 ± 0.2
11,SFFFMKSWSGRPPIQLGV,-0.113 ± 0.65
12,SFFFPWCVTGLRVSHTTAKF,-0.237 ± 0.63
13,SFFNRESGIWWRGSSWFVLV,-0.711 ± 0.48
14,SFFVRKLIGNSYHN,1.89 ± 0.17
15,SFGKVYFN,0.617 ± 0.53
16,SFHIVKDYNSDMYYFFNELV,inactive
17,SFIRMWKDRLYHRLVALNRV,1 ± 0.48
18,SFITDRADCRQWLLRNNIFA,-0.771 ± 0.64
19,SFKFFTVQF,6.66 ± 0.088
20,SFKRFQ,-0.347 ± 1.1
